From US20240034774A1 (Gilead, published 2024)
Changes are numbered by the printed parent chain.

B1: 1.21.1-1 (antibody, human IgG1, kappa)
heavy: QVQLLQSGAAVTKPGASVRVSCEASGYNIRDYFIHWWRQAPGQGLQWVGWINPKTGQPNNPRQFQGRVSLTRDASWDFDTFSFYMDLKALRSDDTAVYFCARQRSDYWDFDVWGSGTQVTVSSASTKGPSVFPLAPSSKSTSGGTAALGCLVKDYFPEPVTVSWNSGALTSGVHTFPAVLQSSGLYSLSSVVTVPSSSLGTQTYICNVNHKPSNTKVDKKVEPKSCDKTHTCPPCPAPELLAGPDVFLFPPKPKDTLMISRTPEVTCVVVDVSHEDPEVKFNWYVDGVEVHNAKTKPREEQYNSTYRVVSVLTVLHQDWLNGKEYKCKVSNKALPLPEEKTISKAKGQPREPQVYTLPPSREEMTKNQVSLTCLVKGFYPSDIAVEWESNGQPENNYKTTPPVLDSDGSFFLYSKLTVDKSRWQQGNVFSCSVLHEALHSHYTQKSLSLSPGK
light: DIQMTQSPSSLSASVGDTVTITCQANGYLNWYQQRRGKAPKLLIYDGSKLERGVPSRFSGRRWGQEYNLTINNLQPEDIATYFCQVYEFVVPGTRLDLKRTVAAPSVFIFPPSDEQLKSGTASVVCLLNNFYPREAKVQWKVDNALQSGNSQESVTEQDSKDSTYSLSSTLTLSKADYEKHKVYACEVTHQGLSSPVTKSFNRGEC
B2: 1.25.1-1 (antibody, human IgG1, kappa)
heavy: B1 heavy with D73H, K88S, A89R
light: B1 light
B3: 1.29.1-1 (antibody, human IgG1, kappa)
heavy: B1 heavy with D73H, S115Q
light: B1 light
B4: 1.30.1-1 (antibody, human IgG1, kappa)
heavy: B1 heavy with D73H, Q118M
light: B1 light
B5: 1.26.1-1 (antibody, human IgG1, kappa)
heavy: B1 heavy with D73H, V97T
light: B1 light
B6: 1.31.31-1 (antibody, human IgG1, kappa)
heavy: B1 heavy with L5V, A10E, D73H, V97T
light: B1 light with N68T, N72S, N73S, R95N
B7: 1.24.1-1 (antibody, human IgG1, kappa)
heavy: B1 heavy with D73H, Y84S
light: B1 light
B8: 1.31.1-1 (antibody, human IgG1, kappa)
heavy: B1 heavy with L5V, A10E, D73H, V97T
light: B1 light
B9: 1.28.1-1 (antibody, human IgG1, kappa)
heavy: B1 heavy with D73H, V97T, S105T
light: B1 light
B10: 1.31.32-1 (antibody, human IgG1, kappa)
heavy: B1 heavy with L5V, A10E, D73H, V97T
light: B1 light with N68T, N72S, N73S, V91T
B11: 1.27.1-1 (antibody, human IgG1, kappa)
heavy: B1 heavy with D73H, S105T
light: B1 light

Assays:
gp120 Bal = gp120 Bal (HIV (Bal)); assay: single-point ELISA at EC50 conc. of A-1
gp120 CAAN = gp120 CAAN (HIV (CAAN)); assay: single-point ELISA at EC50 conc. of A-1
gp120 SHIV SF162 P3 = gp120 SHIV SF162 P3 (SHIV SF162 P3); assay: single-point ELISA at EC50 conc. of A-1
BSA = BSA (UniProt P02769 25-607); assay: single-point ELISA, BSA control

Row | Binder | ELISA A450 (gp120 Bal) [A450] | ELISA A450 (gp120 CAAN) [A450] | ELISA A450 (gp120 SHIV SF162 P3) [A450] | ELISA A450 (BSA) [A450]
1 | B1 | 0.87 | 0.77 | 0.82 | 0.07
2 | B2 | 1.07 | 1.16 | 1.03 | 0.06
3 | B3 | 1.03 | 1.08 | 0.98 | 0.06
4 | B4 | 0.81 | 1.05 | 1.03 | 0.06
5 | B5 | 0.81 | 1 | 0.94 | 0.06
6 | B6 | 0.98 | 1.02 | 0.97 | 0.07
7 | B7 | 0.98 | 0.9 | 1.09 | 0.06
8 | B8 | 0.82 | 0.92 | 0.87 | 0.06
9 | B9 | 1.05 | 0.99 | 0.99 | 0.06
10 | B10 | 0.98 | 1.04 | 0.91 | 0.06
11 | B11 | 0.86 | 0.86 | 0.86 | 0.07
